{
  "source": "the RNAGym collection of RNA variant scans (doi:10.7554/elife.90254)",
  "parents": {"B1": {"name": "LINE1-mini (parent)", "chain": "GGCAGAGCUCAACACAGCGUGGCAAAGUGGCUGUGGCUAGACUGCC"}},
  "data": [
    {"variants_of": "B1", "assay": "self-cleavage, relative activity (ratio to wild type); higher = more cleavage; in vitro, sequencing; the parent is a self-cleaving ribozyme", "values": [
      {"variant": "GGCAGAGCUCUACACAGCGUGGCAAAGUGGCUGUGGCUAGACUGGC", "note": "[A11U C45G]", "self-cleavage": 0.04},
      {"variant": "GGCAGAGCUCGACACAGCGUGGCAAAGUGGCUUUGGCUAGACUGCC", "note": "[A11G G33U]", "self-cleavage": 0.03},
      {"variant": "GGCAGAGCUCGACACAGCGUCGCAAAGUGGCUGUGGCUAGACUGCC", "note": "[A11G G21C]", "self-cleavage": 0.02},
      {"variant": "GGCAGAGCUCAAUACAGCGUGGCAAAGUGGGUGUGGCUAGACUGCC", "note": "[C13U C31G]", "self-cleavage": 0.08},
      {"variant": "GGCAGAGCUCAACACACCGUGGCAAAAUGGCUGUGGCUAGACUGCC", "note": "[G17C G27A]", "self-cleavage": 1.06},
      {"variant": "GGCAGAGCUCAACACAGCGUAGCGAAGUGGCUGUGGCUAGACUGCC", "note": "[G21A A24G]", "self-cleavage": 2.26},
      {"variant": "CGCAGAGCUCAACACAGCGUGGCAAAGUCGCUGUGGCUAGACUGCC", "note": "[G1C G29C]", "self-cleavage": 0.07},
      {"variant": "GGCAGAGCUCAACACAGCGUGGCGAAGUGGCUGUGGCUAGACUUCC", "note": "[A24G G44U]", "self-cleavage": 0.15},
      {"variant": "GGCAGGGCUCAACACAGCGUGGCAAAGUGGCUGUGGCUAGACCGCC", "note": "[A6G U43C]", "self-cleavage": 0.09},
      {"variant": "GGCAGAGCUCAACACAGCGUGGCAAAGGGGCUGUGGCUAGGCUGCC", "note": "[U28G A41G]", "self-cleavage": 0.27},
      {"variant": "GGCAGAGCUCAACACAGCGGGGCAAAGAGGCUGUGGCUAGACUGCC", "note": "[U20G U28A]", "self-cleavage": 0.17},
      {"variant": "GGCAGAGGUCAACACUGCGUGGCAAAGUGGCUGUGGCUAGACUGCC", "note": "[C8G A16U]", "self-cleavage": 0.06},
      {"variant": "GGGAGAGCUCAACACAGCGUGGCAAAGUGGCUGUGGCUAGACUGCG", "note": "[C3G C46G]", "self-cleavage": 0.35},
      {"variant": "GGCUGAGCUCAGCACAGCGUGGCAAAGUGGCUGUGGCUAGACUGCC", "note": "[A4U A12G]", "self-cleavage": 0.05},
      {"variant": "GGCAGAGCUCAACACAGCGUGUCAAAGUGGCUGUGGCUAGAUUGCC", "note": "[G22U C42U]", "self-cleavage": 0.39},
      {"variant": "GUCAGACCUCAACACAGCGUGGCAAAGUGGCUGUGGCUAGACUGCC", "note": "[G2U G7C]", "self-cleavage": 0.04},
      {"variant": "GGCAGAGCUCCACACAGCGUGGCAAAGUGGCUGUGGAUAGACUGCC", "note": "[A11C C37A]", "self-cleavage": 0.02},
      {"variant": "GGCAGUGCUCAACACUGCGUGGCAAAGUGGCUGUGGCUAGACUGCC", "note": "[A6U A16U]", "self-cleavage": 0.11},
      {"variant": "GGCUGAGCACAACACAGCGUGGCAAAGUGGCUGUGGCUAGACUGCC", "note": "[A4U U9A]", "self-cleavage": 0.29},
      {"variant": "GGCAGAGCUCAACACAGCGUGGCACAGUGGCUGUGGCUAGACUUCC", "note": "[A25C G44U]", "self-cleavage": 0.16},
      {"variant": "GGCAGAGCUAAACACAGCGUGGCUAAGUGGCUGUGGCUAGACUGCC", "note": "[C10A A24U]", "self-cleavage": 0.05},
      {"variant": "GCCAGAGCUCAACACAGCGUGGCAAAGUGGCUUUGGCUAGACUGCC", "note": "[G2C G33U]", "self-cleavage": 0.05},
      {"variant": "GGCAGACCUCAACACAGCGUGGCAAAGUGGCUGUGGCUAGACUGCC", "note": "[G7C]", "self-cleavage": 0.13},
      {"variant": "GGCCGAGCUCAACACAGCGUGGCAAAGUGGCUGUGGCUAGACUCCC", "note": "[A4C G44C]", "self-cleavage": 0.12},
      {"variant": "GGCAGAGCUCAACACAGCGUGGCAAACUGGCUGUGUCUAGACUGCC", "note": "[G27C G36U]", "self-cleavage": 0.05},
      {"variant": "GGCGGAGCUCAACACAGCGUGGCAAAGUUGCUGUGGCUAGACUGCC", "note": "[A4G G29U]", "self-cleavage": 0.63},
      {"variant": "GGCGGAGCUCAACACAGCGUGGCAAAGUAGCUGUGGCUAGACUGCC", "note": "[A4G G29A]", "self-cleavage": 0.36},
      {"variant": "GGCAGAGCUCAACACAGCGUGGCUAAGUGGCUGUGGCUAGAAUGCC", "note": "[A24U C42A]", "self-cleavage": 0.18},
      {"variant": "GGCAGAGCACAACACAGCGUGGCAAAGUGGCUGUGGCUAGAAUGCC", "note": "[U9A C42A]", "self-cleavage": 0.06},
      {"variant": "GGCAGAGCUCAACACAGCCUGGCAAAGUGGCUGUGGCUAGAAUGCC", "note": "[G19C C42A]", "self-cleavage": 0.14},
      {"variant": "GGCAGAGCUCAACACAGCGUGGCAAAGUGGCUGUGCCUAGACGGCC", "note": "[G36C U43G]", "self-cleavage": 0},
      {"variant": "GGCAGAGCUCAGCACAGCGUGGGAAAGUGGCUGUGGCUAGACUGCC", "note": "[A12G C23G]", "self-cleavage": 0.05},
      {"variant": "GGCAGAGCCCAACACAGCGUAGCAAAGUGGCUGUGGCUAGACUGCC", "note": "[U9C G21A]", "self-cleavage": 0.04},
      {"variant": "GGCAGAGCUCAACACAGCGUGGCAAAGUCGCUGUGACUAGACUGCC", "note": "[G29C G36A]", "self-cleavage": 0.02},
      {"variant": "GGCAGAGCUCAACACAGCGUGGCAAAGUGGCUGUGGAUAGACUUCC", "note": "[C37A G44U]", "self-cleavage": 0.18},
      {"variant": "GGCAGAGCUCAACACAGCGUGGCAAGGUGGCUGUGGCUAGACUGCA", "note": "[A26G C46A]", "self-cleavage": 1.08},
      {"variant": "GGCAGACCUCCACACAGCGUGGCAAAGUGGCUGUGGCUAGACUGCC", "note": "[G7C A11C]", "self-cleavage": 0.04},
      {"variant": "GGCAGAGCUCAACACAGCGUUGCAAAGUGCCUGUGGCUAGACUGCC", "note": "[G21U G30C]", "self-cleavage": 2.18},
      {"variant": "GGCAGAGUUCAACACAGCGUGGCAAAGUGGCUGUAGCUAGACUGCC", "note": "[C8U G35A]", "self-cleavage": 0.32},
      {"variant": "GGCAGAGCUCAACACAGCGUGGCAAAGUGGCUGUGGCUAGGCUCCC", "note": "[A41G G44C]", "self-cleavage": 0.05},
      {"variant": "GGAAGAGCUCACCACAGCGUGGCAAAGUGGCUGUGGCUAGACUGCC", "note": "[C3A A12C]", "self-cleavage": 0.07},
      {"variant": "GGCAGAGCUCAACACAGCGUGGCGAAGUGGCUGUGGCUAGUCUGCC", "note": "[A24G A41U]", "self-cleavage": 0.67},
      {"variant": "GGCAGAGCUCAACACAGCGUGGCACAGUGGCUGUGGCUAGACUGCG", "note": "[A25C C46G]", "self-cleavage": 0.75},
      {"variant": "GGCAGAGCUCAACACAGCGUGGCAACUUGGCUGUGGCUAGACUGCC", "note": "[A26C G27U]", "self-cleavage": 0.46},
      {"variant": "GGCAGAGCUCAACACAGCGUGGCAACGUGGCUGUGGCUCGACUGCC", "note": "[A26C A39C]", "self-cleavage": 0.09},
      {"variant": "AGCAGAGCUCAACACAGCGUGGCAAAGUGGCUGUGGCUAGACGGCC", "note": "[G1A U43G]", "self-cleavage": 0.02},
      {"variant": "GGCAGAGCUGAACACAGCGUGGCAAAGAGGCUGUGGCUAGACUGCC", "note": "[C10G U28A]", "self-cleavage": 0.11},
      {"variant": "GGCAGAGCUCAACCCAGCGUGACAAAGUGGCUGUGGCUAGACUGCC", "note": "[A14C G22A]", "self-cleavage": 0.18},
      {"variant": "GGCAGAGGUCAACACAGCGUGGCAAAGUGGCUAUGGCUAGACUGCC", "note": "[C8G G33A]", "self-cleavage": 0.12},
      {"variant": "GGCAGAGCUCAACACAGCGUGGGAAAGUGGCUGUGGCUUGACUGCC", "note": "[C23G A39U]", "self-cleavage": 0.69},
      {"variant": "GACAGAGCUCAACACAGCGUGGCAAAGUGGGUGUGGCUAGACUGCC", "note": "[G2A C31G]", "self-cleavage": 0.14},
      {"variant": "GGCAGAGCUCUAUACAGCGUGGCAAAGUGGCUGUGGCUAGACUGCC", "note": "[A11U C13U]", "self-cleavage": 0.04},
      {"variant": "GGCAGAGCUCAACACAGCGUGGCAAAGUGCCUGUGGCUAGACUGCC", "note": "[G30C]", "self-cleavage": 1.63},
      {"variant": "GGCAGAGCUCAACACAGCGUGGCAAAGUGGGUGUGGCUAGCCUGCC", "note": "[C31G A41C]", "self-cleavage": 0.05},
      {"variant": "GGCAGAGCUCAACAAAGCGUGGCAAAGUGGCUGUGGCAAGACUGCC", "note": "[C15A U38A]", "self-cleavage": 0.05},
      {"variant": "GGCAGAGCUCAACACAGCGUGGCAAAGUGACUGUGGCUAGACAGCC", "note": "[G30A U43A]", "self-cleavage": 0.12}
    ]}
  ]
}
